{"source": "patent US20220324922A1", "molecular_target": "GluN2B-containing NMDA receptor (GluN1a/GluN2B)", "test": "cell-based or functional assay"}
{"binder": "ADTDYADGSEDKVVE", "note": "[Con-G-like APP (cAPP)]", "values": [{"measurement": "inhibition of receptor currents, two-electrode voltage clamp, Xenopus oocytes", "result": "< 30", "unit": "%"}]}
